Like-named read-outs stand apart in the source and are kept apart here.
Assays:
EL1 = biological target: T1, EL1 (Arabidopsis thaliana, UniProt Q9MAM3); experiment: 18:0-CoA elongation by EL1 microsomes in standard reaction mix containing cerulenin; type: biochemical
T1 construct: Yeast cultures containing full-length EL1 in λYES and full-length EL2 in pYEUra3 were grown in the presence of galactose or glucose; made in house; microsomes of galactose-induced cells
Description: (§1) Fatty acid elongase activity was measured essentially as described in Hlousek-Radojcic, A. et al., Plant J. 8:803–809 (1995). Briefly, the standard elongation reaction mix contained 80 mM Hepes-KOH, pH 7.2, 20 mM MgCl2, 500 μM NADPH, 1 mM ATP, 100 μM malonyl-CoA, 10 μM CoA-SH and 15 μM radioactive acyl-CoA substrate. The radiolabeled substrate was either [1^−14C]18:1-CoA (50 uCi μmol^−1), [1^−14C]18:0-CoA (55 uCi μmol^−1), or [1^−14C]16:0-CoA (54 uCi μmol^−1). The reaction was initiated by the addition of yeast microsomes (5 μg protein) and the mixture incubated at 30° C. for the indicated period of time. The final reaction volume was 25 μl.
(§2) Methyl esters of the acyl-CoA elongation products were prepared as described in Example 1. Methyl esters were separated on reversed phase silica gel KC18 TLC plates (Whatman, […] thick), quantified by phosphorimaging, and analyzed on by ImageQuant software (Molecular Dynamics, Inc., Sunnyvale, Calif.). The detection limit for each product is about 0.001 nanomoles per min. per mg microsomal protein, depending on the phosphorimage exposure time.
(§3) In a third experiment, microsomes from induced and uninduced cultures containing EL1 or EL2 were incubated in the absence of cofactors involved in the β-ketoacyl condensation reaction. Cultures were induced and microsomes were prepared as described in Example 2. In vitro assays were carried out as described in Example 2, except that either ATP, CoASH or both were omitted from the enzyme reaction mixture.

EL2 = biological target: T2, EL2 (Arabidopsis thaliana, UniProt Q9SYZ0); experiment: 18:0-CoA elongation by EL2 microsomes in standard reaction mix containing cerulenin; type: biochemical
T2 construct: Yeast cultures containing full-length EL1 in λYES and full-length EL2 in pYEUra3 were grown in the presence of galactose or glucose; made in house; microsomes of galactose-induced cells
T2 sequence (Q9SYZ0 36-493): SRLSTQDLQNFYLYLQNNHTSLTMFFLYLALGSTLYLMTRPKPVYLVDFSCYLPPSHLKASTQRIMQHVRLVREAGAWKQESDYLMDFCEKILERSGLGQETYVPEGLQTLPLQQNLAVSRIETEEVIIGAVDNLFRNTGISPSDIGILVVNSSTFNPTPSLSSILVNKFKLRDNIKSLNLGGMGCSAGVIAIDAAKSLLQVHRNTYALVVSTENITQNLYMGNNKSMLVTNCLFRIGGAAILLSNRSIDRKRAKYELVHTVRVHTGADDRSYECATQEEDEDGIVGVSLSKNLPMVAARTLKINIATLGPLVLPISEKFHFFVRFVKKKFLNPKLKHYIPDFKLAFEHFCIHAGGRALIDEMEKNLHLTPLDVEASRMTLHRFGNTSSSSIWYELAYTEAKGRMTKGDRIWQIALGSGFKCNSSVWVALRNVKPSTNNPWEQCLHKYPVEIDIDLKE
Description: as §1, §2, §3

[1] = In vitro fatty acid elongation assay with yeast microsomes, 18:0 acyl-CoA substrate; type: biochemical, Saccharomyces cerevisiae
Description: (§4) Transformed yeast cells were grown in the presence of either glucose or galactose (2% w/v) as described in Example 1. Cells were harvested by centrifugation at 5000×g for 10 min and washed with 10 ml ice cold isolation buffer (IB), which contains 80 mM Hepes-KOH, pH 7.2, 5 mM EGTA, 5 mM EDTA, 10 mM KC1, 320 mM sucrose and 2 mM DTT). Cells were then resuspended in enough IB to fill a 1.7 ml tube containing 700 μl of 0.5 μm glass beads and yeast microsomes were isolated from the cells essentially as described in Tillman, T. and Bell, R., J. Biol. Chem. 261:9144–9149 (1986). The microsomal membrane pellet was recovered by centrifugation at 252,000×g for 60 min. The pellet was rinsed by resuspending in 40 ml fresh IB and again recovered by centrifugation at 252000×g for 60 min. Microsomal pellets were resuspended in a minimal volume of IB, and the protein concentration adjusted to 2.5 μg μl^−1 by addition of IB containing 15% glycerol. Microsomes were frozen on dry ice and stored at −80° C. The protein concentration in microsomes was determined by the Bradford method (Bradford, 1976).
as §1, §2
(§5) Yeast cultures containing full-length EL1 in λYES and full-length EL2 in pYEUra3 were grown in the presence of galactose or glucose as described in Example 2. Microsomes were then prepared from each of the cultures and fatty acid elongation assays were carried out as described in Example 2.
(§6) In the first experiment, microsomes were prepared from galactose-induced cultures of EL1, EL2 and FAE1, and incubated with either [1-^14C] 18:0 acyl-CoA or [1-^14C] 18:1 acyl-CoA as substrate. The amounts of various reaction products synthesized after 30 minutes (min) were determined as described in Example 2.
In a second experiment, microsomes were prepared from galactose-induced and from glucose-repressed yeast cultures containing EL1 or EL2 coding sequences. The microsomal preparations were incubated with either 18:0 acyl-CoA or 18:1 acyl-CoA as substrate and the fatty acid reaction products determined as described above. […]

[2] = In vitro fatty acid elongation assay with yeast microsomes, 16:0 acyl-CoA substrate; type: biochemical, Saccharomyces cerevisiae
Description: as §4, §1, §2

[3] = type: biochemical, Saccharomyces cerevisiae
Description: as §4, §1, §2, §5, §6
In a second experiment, microsomes were prepared from galactose-induced and from glucose-repressed yeast cultures containing EL1 or EL2 coding sequences. The microsomal preparations were incubated with either 18:0 acyl-CoA or 18:1 acyl-CoA as substrate and the fatty acid reaction products determined as described above.

[4] = tested on: Saccharomyces cerevisiae strain AB1380; experiment: Fatty acid composition of yeast cells transformed with pYEUra3/FAE1; type: cell-based; conditions: galactose-induced yeast containing the FAE1 coding sequence
Description: Yeast transformed with pYEUra3 having FAE1 operably linked to the GAL1 promoter were grown in the presence of galactose or glucose and were analyzed for the expression of FAE1. As a control, yeast transformed with pYEUra3 containing no insert were also assayed. Analysis of such control preparations yielded fatty acid compositions and fatty acid elongation rates similar to those of yeast transformed with pYEUra3/FAE1. and grown with glucose as the carbon source.
The fatty acid composition of yeast cells grown in the presence of galactose was compared to that of cells grown in the presence of glucose, to determine if VLCFA were found in the galactose-induced cells.
Transformed yeast cells were grown overnight in YPD media at 30° C. with vigorous shaking. One hundred μl of the overnight culture were used to inoculate 40 ml of complete minimal uracil dropout media (CM-Ura) supplemented with either glucose or galactose (2% w/v). Cultures were grown at 30° C. to an OD600 of approximately 1.3 to 1.5. Cells were harvested by centrifugation at 5000×g for 10 min. Total lipids were extracted from the cells with 2 volumes of 4N KOH in 100% methanol for 60 min. at 80° C. […] Methyl esters were analyzed on an HP 5890 series II gas chromatograph equipped with a 5771MSD and 7673 auto injector (Hewlett-Packard, Cincinnati, Ohio.). […]

[5] = EL1, galactose-induced, +Cer 0.01 mM cerulenin, average of two experiments
[6] = EL2, galactose-induced, +Cer 0.01 mM cerulenin, average of two experiments
[7] = 18:0-CoA substrate, galactose-induced, 30 min, first experiment
[8] = 18:1-CoA substrate, galactose-induced, 30 min, first experiment
[9] = microsomes from galactose-induced cells

T1 sequence (Q9MAM3 9-528 limits assumed): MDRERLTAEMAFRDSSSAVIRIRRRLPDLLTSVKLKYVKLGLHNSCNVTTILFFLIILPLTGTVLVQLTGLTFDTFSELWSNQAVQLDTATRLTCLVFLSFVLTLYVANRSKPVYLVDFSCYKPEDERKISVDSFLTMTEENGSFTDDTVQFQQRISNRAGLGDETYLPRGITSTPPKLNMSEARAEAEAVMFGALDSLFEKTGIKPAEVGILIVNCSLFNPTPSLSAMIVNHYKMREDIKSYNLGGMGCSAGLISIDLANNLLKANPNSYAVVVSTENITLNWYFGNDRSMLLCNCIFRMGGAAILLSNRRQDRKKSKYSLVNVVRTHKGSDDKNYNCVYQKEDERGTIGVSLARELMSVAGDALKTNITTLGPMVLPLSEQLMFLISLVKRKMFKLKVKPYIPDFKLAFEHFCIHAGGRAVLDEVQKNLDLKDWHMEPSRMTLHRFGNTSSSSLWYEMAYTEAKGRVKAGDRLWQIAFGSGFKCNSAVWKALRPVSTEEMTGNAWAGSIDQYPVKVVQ

## C/C=C/C/C=C/CCC(=O)[C@H]1O[C@H]1C(N)=O [cerulenin]
EL1; 0.01 mM cerulenin
  inhibition of KAS activity of EL1: does not inhibit
EL1; [5]
  20:0 product as a percent of total products formed: 46.7%
  22:0 product as a percent of total products formed: 16.2%
  24:0 product as a percent of total products formed: 17.7%
  26:0 product as a percent of total products formed: 19.4%
  Total products as a percent of total products formed: 100.0%
EL2; 0.01 mM cerulenin
  inhibition of KAS activity of EL2: does not inhibit
EL2; [6]
  20:0 product as a percent of total products formed: 41.8%
  22:0 product as a percent of total products formed: 16.1%
  24:0 product as a percent of total products formed: 20.4%
  26:0 product as a percent of total products formed: 21.8%
  Total products as a percent of total products formed: 100.0%

B1: FAE1: Known Arabidopsis FAE1 elongase β-ketoacyl synthase expressed in yeast, used as comparator (protein, UniProt Q38860 1-506, looked up)
3-ketoacyl-CoA synthase 18: MTSVNVKLLYRYVLTNFFNLCLFPLTAFLAGKASRLTINDLHNFLSYLQHNLITVTLLFAFTVFGLVLYIVTRPNPVYLVDYSCYLPPPHLKVSVSKVMDIFYQIRKADTSSRNVACDDPSSLDFLRKIQERSGLGDETYSPEGLIHVPPRKTFAASREETEKVIIGALENLFENTKVNPREIGILVVNSSMFNPTPSLSAMVVNTFKLRSNIKSFNLGGMGCSAGVIAIDLAKDLLHVHKNTYALVVSTENITQGIYAGENRSMMVSNCLFRVGGAAILLSNKSGDRRRSKYKLVHTVRTHTGADDKSFRCVQQEDDESGKIGVCLSKDITNVAGTTLTKNIATLGPLILPLSEKFLFFATFVAKKLLKDKIKHYYVPDFKLAVDHFCIHAGGRAVIDELEKNLGLSPIDVEASRSTLHRFGNTSSSSIWYELAYIEAKGRMKKGNKAWQIALGSGFKCNSAVWVALRNVKASANSPWQHCIDRYPVKIDSDLSKSKTHVQNGRS
[1]; [7]
  (%) 20:0 acyl-CoA product: 64.3%
  (%) 22:0 acyl-CoA product: 18.6%
  (%) 24:0 acyl-CoA product: 10.7%
  (%) 26:0 acyl-CoA product: 6.3%
  (%) Total acyl-CoA products: 100.0%
  Rate, 20:0 acyl-CoA product: 0.369 Nanomoles/minute/mg of microsomal protein
  Rate, 22:0 acyl-CoA product: 0.113 Nanomoles/minute/mg of microsomal protein
  Rate, 24:0 acyl-CoA product: 0.065 Nanomoles/minute/mg of microsomal protein
  Rate, 26:0 acyl-CoA product: 0.038 Nanomoles/minute/mg of microsomal protein
  Rate, Total acyl-CoA products: 0.585 Nanomoles/minute/mg of microsomal protein
[1]; microsomes from induced yeast
  synthesis of 20:0 CoA from the 18:0 CoA substrate: 5.1 nmol mg protein^−1
[2]; induced minus uninduced
  FAE1 elongase KAS activity, difference in 16:0 elongation rates between induced and uninduced microsomes: 5.7 nmol mg protein^−1
[2]; induced vs uninduced
  16:0-CoA elongation by microsomes from induced cells, higher than uninduced cells: more than 50%
[2]; microsomes from induced cells, at 30 min
  total rate of elongation of [14C]16:0-CoA: 15.8 nmol mg protein^−1
[2]; microsomes from induced yeast
  synthesis of 20:0 CoA from the 16:0 CoA substrate: 4.2 nmol mg protein^−1
[3]
  increase in 18:1 CoA elongation, microsomes from induced vs uninduced cells: about 18 fold
[3]; [8]
  (%) 20:1 acyl-CoA product: 84.6%
  (%) 22:1 acyl-CoA product: 15.4%
  (%) 24:1 acyl-CoA product: 0.0%
  (%) 26:1 acyl-CoA product: 0.0%
  (%) Total acyl-CoA products: 100.0%
  Rate, 20:1 acyl-CoA product: 1.131 Nanomoles/minute/mg of microsomal protein
  Rate, 22:1 acyl-CoA product: 0.206 Nanomoles/minute/mg of microsomal protein
  Rate, 24:1 acyl-CoA product: 0.0 Nanomoles/minute/mg of microsomal protein
  Rate, 26:1 acyl-CoA product: 0.0 Nanomoles/minute/mg of microsomal protein
  Rate, Total acyl-CoA products: 1.337 Nanomoles/minute/mg of microsomal protein
[3]; [9]
  rate of elongation of oleoyl-CoA relative to rate of elongation of 16:0-CoA: about 2 fold
  rate of elongation of oleoyl-CoA relative to rate of elongation of 18:0-CoA: ~3 fold
[4]
  very long chain fatty acids in transformed yeast cells: appearance of both 20:1 and 22:1 acyl-CoA products

Reference: patent publication US7038112B2, “Fatty acid elongases” (Miami University, priority 1997, dated 2006)
